Reference: patent publication US20240189408A1, “COMPOSITIONS AND METHODS FOR REDUCING METHANE EMISSIONS IN RUMINANT POPULATIONS” (Arkea Bio Corp., priority 2022, published 2024)
Several values for one entry are separate records, joined by “and”; a condition that tells them apart may be missing. Equal values may be shown once.

Tests used:
rumen methanogens = conditions: cited from earlier work
[1] = LNP size and polydispersity by DLS (Malvern Panalytical); type: physicochemical
Experimental: (§1) To prepare lipid nanoparticles (LNPs), the mRNA stocks were thawed on ice. Nucleic acid concentrations were validated by absorbance at 260 nm using a NanoDrop. The mRNAs were then diluted to a final concentration of 0.35 mg/mL mRNA in Precision Nanosystem's dilution buffer. 10 mL of the dilute mRNAs were loaded into separate Luer lock syringes and all bubbles were removed by gentle tapping. A NanoAssemblr Ignite NxGen Cartridge was loaded into the cartridge slot of the Ignite instrument (FIG. 8A, 801) and one mRNA syringe was attached to the aqueous inlet of the cartridge. 3.3 mL of Genvoy-ILM reagent was loaded into a separate Luer lock syringes and all bubbles were removed by gentle tapping. The Genvoy-ILM syringe was then attached to the organic inlet of the cartridge. LNPs were then generated and collected into a 15 mL conical tube. The process was repeated for the remaining two mRNAs and for a buffer only LNP control (empty). Immediately after LNPs were generated, the samples were loaded into 10K dialysis cartridges, submerged into 1×DPBS (Ca^2+ and Mg^2+-free) to reduce the ethanol concentration to <0.5%. After dialysis the LNPs were recovered from the dialysis cartridges and sterile filtered at 0.2 um. Size and polydispersity (FIG. 8A, 802) were measured using a Malvern Panalytical DLS by diluting 40 uL of LNPs into 360 uL of 1×DPBS. […] Encapsulation efficiency was measured using a RiboGreen assay following Precision Nanosystems recommended protocol using a BioTek Synergy H1 Plate Reader. The resultant encapsulation efficiencies are shown in Table 14, with an average of ˜85%.
(§2) To prepare lipid nanoparticles (LNPs), the mRNA stocks were thawed on ice. Nucleic acid concentrations were validated by absorbance at 260 nm using a NanoDrop. The mRNAs were then diluted to a final concentration of 0.35 mg/mL mRNA in Precision Nanosystem's dilution buffer. 10 mL of the dilute mRNAs were loaded into separate Luer lock syringes and all bubbles were removed by gentle tapping. A NanoAssemblr Ignite NxGen Cartridge was loaded into the cartridge slot of the Ignite instrument and one mRNA syringe was attached to the aqueous inlet of the cartridge. 3.3 mL of Genvoy-ILM reagent was loaded into a separate Luer lock syringes and all bubbles were removed by gentle tapping. The Genvoy-LM syringe was then attached to the organic inlet of the cartridge. LNPs were then generated and collected into a 15 mL conical tube. The process was repeated for the remaining mRNAs and for a buffer only LNP control (empty). Immediately after LNPs were generated, the samples were loaded into 10K dialysis cartridges, submerged into Ix DPBS (Ca^2+ and Mg^2+-free) to reduce the ethanol concentration to <0.5%. After dialysis the LNPs were recovered from the dialysis cartridges and sterile filtered at 0.2 um. Size and polydispersity (FIG. 12 and FIG. 13) were measured using a Malvern Panalytical DLS by diluting 40 uL of LNPs into 360 uL of 1×DPBS. […] Encapsulation efficiency was measured using a RiboGreen assay following Precision Nanosystems recommended protocol using a BioTek Synergy H1 Plate Reader. The resultant encapsulation efficiencies are shown in Table 18, with an average of ˜60%.
(§3) To prepare lipid nanoparticles (LNPs), the mRNA stocks are thawed on ice. Nucleic acid concentrations are validated by absorbance at 260 nm using a NanoDrop. The mRNAs are then diluted to a final concentration of 0.35 mg/mL mRNA in Precision Nanosystem's dilution buffer. 10 mL of the dilute mRNAs are loaded into separate Luer lock syringes and all bubbles are removed by gentle tapping. A NanoAssemblr Ignite NxGen Cartridge is loaded into the cartridge slot of the Ignite instrument and one mRNA syringe is attached to the aqueous inlet of the cartridge. 3.3 mL of Genvoy-ILM reagent is loaded into a separate Luer lock syringes and all bubbles are removed by gentle tapping. The Genvoy-ILM syringe is then attached to the organic inlet of the cartridge. […]

total IgG = assay: Total sera IgG by radial immunodiffusion after IM or SQ vaccination with OVA mRNA LNPs; type: in vivo, dairy cows; conditions: for Serum IgG Concentration: one line per animal replicate
Experimental: (§4) Bovine nucleic acid vaccination protocols (SQ and IM) were assessed in vivo in the dairy cows through the quantification of the adaptive immune response following inoculation with ovalbumin (OVA). Immune response was assessed by quantifying total IgG and OVA-specific IgG over a 28-day period after vaccination. Both SQ and IM vaccination provided a robust immune response, with IM vaccination providing a higher total immune response than SQ vaccination.
(§5) Dairy cows were dried off for a period of eight days prior to vaccination. Each vaccine formulation was administered either by IM or SQ injection to three animals. In total, 15 animals were vaccinated with LNPs containing mRNA and 6 animals were vaccinated with empty LNPs. Intramuscular injections were delivered into the cow's right neck muscle by veterinary-trained staff using an 18-gauge 1-1.5″ needle. Subcutaneous injections were delivered into the cow's right shoulder by veterinary-trained staff using an 18-gauge 0.5-0.75″ needle. Total blood samples (˜20 mL) were collected by veterinary-trained staff. Samples were collected into 10 mL vacutainer tubes (2×10 mL) from the coccygeal vein (tail vein) by needle puncture. Harvested blood samples were then processed via ultracentrifugation for serum collection. Isolated serum samples were aliquoted, labeled and stored in cryogenic tubes at −20° C. until use.
Sera samples were thawed on ice and total IgG was quantified using Triple J Farms' Ig Radial Immunodiffusion (RID) kits (Cat No. 728411) following the manufacturers recommended protocol.

ovalbumin (OVA) = assay: OVA-specific IgG ELISA of sera after IM or SQ vaccination; type: in vivo, dairy cows; conditions: for OVA-specific IgG, Absorbance (OD450): one line per animal replicate
Experimental: as §4, §5
Sera samples were thawed on ice and total IgG was quantified using NovateinBio's Bovine OVA sIgG Antibody ELISA Kit (Cat No. BG-BVN11731) following the manufacturer's recommended protocol. Each of the animals vaccinated with a construct show a demonstrable OVA-specific IgG response over the 28-day test period.

[2] = LNP encapsulation efficiency, RiboGreen assay; type: physicochemical
Experimental: as §1, §2, §3

For `CC[C@H](C)C(=O)O[C@H]1C[C@@H](C)C=C2C=C[C@H](C)[C@H](CC[C@@H]3C[C@@H](O)CC(=O)O3)[C@H]21` [lovastatin], the “reduction of total CH4 production by rumen methanogens” value (rumen methanogens; extracted from fermented rice straw, after 48 h in vitro incubation) is listed as about 28% and the “reduction of CH4 production” value (rumen methanogens; rumen simulation technique (Rusitec), 150 mg/L) is listed as “approximately 42%”.

For Nisin, the “suppression of CH4 in vitro” value (rumen methanogens) is given as “up to 40%”.

For Catechin, the CH4 production (rumen methanogens) is listed as “decreased CH4 production both in vitro and in vivo”.

For Bovicin HC5, the “suppression of CH4 in vitro” value (rumen methanogens) is listed as 50%.

B1: ARK015: mRNA: OVA + STOP, cytosolic OVA; SEQ ID NO: 16675 (nucleic acid)
chain: ATGTTCGTGTTCCTCGTGCTCCTGCCCCTCGTCTCCAGCCAGTGCGTGGGGTCCATAGGGGCTGCTTCTATGGAGTTCTGTTTTGATGTTTTCAAGGAACTGAAGGTTCACCATGCTAACGAGAACATCTTTTACTGTCCAATAGCCATCATGAGTGCGCTTGCTATGGTTTATTTGGGTGCAAAAGATTCTACTCGCACTCAGATTAATAAGGTCGTTAGATTCGACAAGCTTCCAGGGTTTGGAGACAGTATTGAGGCCCAATGTGGAACGTCAGTCAACGTCCATTCTTCTCTGCGGGACATTCTCAACCAAATAACGAAGCCAAACGACGTGTATTCCTTCTCACTCGCGTCACGGCTGTATGCTGAAGAAAGGTATCCTATCTTGCCAGAATATCTCCAGTGCGTCAAGGAGTTGTATCGAGGCGGACTGGAACCGATCAACTTTCAGACTGCAGCCGACCAGGCCCGCGAACTGATCAACAGCTGGGTCGAGTCTCAGACCAATGGGATCATACGCAATGTGTTGCAACCGAGTAGTGTCGACTCTCAGACGGCTATGGTCTTGGTGAACGCTATAGTCTTCAAAGGTCTGTGGGAGAAGACCTTCAAGGATGAAGACACACAAGCGATGCCATTCAGAGTCACCGAACAAGAAAGCAAACCCGTCCAAATGATGTACCAAATTGGGCTTTTTCGGGTGGCCTCTATGGCCTCTGAGAAAATGAAAATATTGGAACTGCCCTTCGCCAGCGGCACAATGAGTATGTTGGTCCTTCTTCCAGATGAAGTCTCAGGTCTCGAACAGCTTGAGTCTATCATTAACTTTGAGAAACTCACTGAATGGACTTCTTCCAATGTGATGGAAGAACGAAAAATCAAAGTCTACCTGCCCCGAATGAAGATGGAAGAGAAATATAATTTGACATCAGTTCTGATGGCCATGGGAATCACAGACGTGTTTTCATCCTCTGCGAATCTGTCTGGCATATCTTCCGCAGAATCTCTCAAGATCAGTCAAGCCGTCCACGCGGCCCATGCTGAGATAAATGAGGCGGGCAGAGAGGTGGTGGGGTCCGCCGAAGCTGGAGTCGACGCAGCTTCTGTCAGTGAAGAATTTAGGGCCGATCATCCTTTCCTGTTCTGCATAAAGCACATAGCTACGAACGCTGTGCTTTTCTTTGGCAGATGCGTTTCTCCATGA
modifications: listed as DNA
B1 gave a PDI ([1]; LNP polydispersity, mRNA LNPs of Table 18) of 0.130, a Z-avg. ([1]; LNP size, mRNA LNPs of Table 18) of 68.06 nm·days and a PDI ([1]; mRNA LNPs, Example 6) of 0.1705. The “Z-avg.” value ([1]; mRNA LNPs, Example 6) was 96.66 nm·days, the “Serum IgG Concentration” value (total IgG; IM injection, Day 0, dairy cows, dose 348-468 ug) was 3,658 mg/dL and 4,086 mg/dL and 3,167 mg/dL and the “Serum IgG Concentration” value (total IgG; IM injection, Day 14, dairy cows, dose 348-468 ug) was 3,692 mg/dL and 5,735 mg/dL and 3,947 mg/dL. For the same molecule, the “Serum IgG Concentration” value (total IgG; IM injection, Day 21, dairy cows, dose 348-468 ug) was 4,070 mg/dL and 2,488 mg/dL and 3,797 mg/dL, the “Serum IgG Concentration” value (total IgG; IM injection, Day 28, dairy cows, dose 348-468 ug) was 3,272 mg/dL and 4,153 mg/dL and 2,723 mg/dL and the “Serum IgG Concentration” value (total IgG; SQ injection, Day 0, dairy cows, dose 353-468 ug) was 4,875 mg/dL and 3,680 mg/dL and 2,964 mg/dL. For the same molecule, the “Serum IgG Concentration” value (total IgG; SQ injection, Day 14, dairy cows, dose 353-468 ug) was 5,972 mg/dL and 3,257 mg/dL and 3,894 mg/dL, the “Serum IgG Concentration” value (total IgG; SQ injection, Day 21, dairy cows, dose 353-468 ug) was 5,722 mg/dL and 3,149 mg/dL and 3,981 mg/dL and the “Serum IgG Concentration” value (total IgG; SQ injection, Day 28, dairy cows, dose 353-468 ug) was 4,015 mg/dL and 3,009 mg/dL and 2,221 mg/dL. The “total sera IgG immune response, treated groups normalized against the empty groups” value (total IgG; dairy cows, 3 animals per construct, 28-day test period, FIG. 9) was “detectable immune response in at least one of the treated animals”, the “OVA-specific IgG, Absorbance (OD450)” value (ovalbumin (OVA); IM injection, Day 0, dairy cows) was 0.842 OD450 and 0.938 OD450 and 0.308 OD450 and the “OVA-specific IgG, Absorbance (OD450)” value (ovalbumin (OVA); IM injection, Day 14, dairy cows) was 1.653 OD450 and 1.048 OD450 and 0.513 OD450. For the same molecule, the “OVA-specific IgG, Absorbance (OD450)” value (ovalbumin (OVA); IM injection, Day 21, dairy cows) was 1.23 OD450 and 1.261 OD450 and 0.443 OD450, the “OVA-specific IgG, Absorbance (OD450)” value (ovalbumin (OVA); IM injection, Day 28, dairy cows) was 1.097 OD450 and 0.999 OD450 and 0.465 OD450 and the “OVA-specific IgG, Absorbance (OD450)” value (ovalbumin (OVA); SQ injection, Day 0, dairy cows) was 1.394 OD450 and 1.327 OD450 and 3.178 OD450. The “OVA-specific IgG, Absorbance (OD450)” value (ovalbumin (OVA); SQ injection, Day 14, dairy cows) was 1.287 OD450 and 1.175 OD450 and 2.478 OD450, the “OVA-specific IgG, Absorbance (OD450)” value (ovalbumin (OVA); SQ injection, Day 21, dairy cows) was 1.504 OD450 and 1.277 OD450 and 1.985 OD450 and the “OVA-specific IgG, Absorbance (OD450)” value (ovalbumin (OVA); SQ injection, Day 28, dairy cows) was 1.368 OD450 and 1.066 OD450 and 1.691 OD450. The “OVA-specific IgG response, intramuscular as compared to subcutaneous injection” value (ovalbumin (OVA); dairy cows, FIG. 10) was about 4 fold, the Encapsulation efficiency ([2]; mRNA LNPs of Table 18) was 62% and the Encapsulation efficiency ([2]; mRNA LNPs, Example 6) was 84%.
